Measured values: patent US20200399382A1 (ARGENX, published 2020)

T1: human IL-4Rα (SPR target) (human, UniProt P24394 26-232, limits assumed)
T1 construct: also called recombinant human IL-4Rα-Fc
T1 sequence (looked up): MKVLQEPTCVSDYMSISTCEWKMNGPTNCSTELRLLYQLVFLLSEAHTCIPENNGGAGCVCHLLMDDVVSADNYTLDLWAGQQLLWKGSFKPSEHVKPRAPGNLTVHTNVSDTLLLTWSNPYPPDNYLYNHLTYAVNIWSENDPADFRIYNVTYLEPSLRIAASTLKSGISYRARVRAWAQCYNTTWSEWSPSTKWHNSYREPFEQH

T2: cynomolgus recombinant IL-4Rα (cynomolgus (table head: cyno/rhesus), UniProt A0A2K5V556 26-232)
T2 construct: Bought reagent; also called cyno/rhesus IL-4Rα; cyno IL-4Rα
T2 sequence: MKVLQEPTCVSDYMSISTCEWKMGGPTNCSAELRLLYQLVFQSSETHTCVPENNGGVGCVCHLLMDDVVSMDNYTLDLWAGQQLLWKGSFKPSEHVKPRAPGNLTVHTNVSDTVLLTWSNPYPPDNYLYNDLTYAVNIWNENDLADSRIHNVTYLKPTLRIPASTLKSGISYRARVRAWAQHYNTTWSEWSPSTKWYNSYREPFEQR

T3: human IL-5 (human, UniProt P05113 20-134)
T3 construct: also called hIL-5; recombinant human IL-5
T3 sequence (looked up): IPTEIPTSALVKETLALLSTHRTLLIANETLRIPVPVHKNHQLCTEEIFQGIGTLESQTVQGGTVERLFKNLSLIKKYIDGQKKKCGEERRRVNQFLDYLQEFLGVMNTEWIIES

T4: human IL-4Rα on the cells of the hIL-4 proliferation assay (human, UniProt P24394 26-825)
T4 sequence (looked up): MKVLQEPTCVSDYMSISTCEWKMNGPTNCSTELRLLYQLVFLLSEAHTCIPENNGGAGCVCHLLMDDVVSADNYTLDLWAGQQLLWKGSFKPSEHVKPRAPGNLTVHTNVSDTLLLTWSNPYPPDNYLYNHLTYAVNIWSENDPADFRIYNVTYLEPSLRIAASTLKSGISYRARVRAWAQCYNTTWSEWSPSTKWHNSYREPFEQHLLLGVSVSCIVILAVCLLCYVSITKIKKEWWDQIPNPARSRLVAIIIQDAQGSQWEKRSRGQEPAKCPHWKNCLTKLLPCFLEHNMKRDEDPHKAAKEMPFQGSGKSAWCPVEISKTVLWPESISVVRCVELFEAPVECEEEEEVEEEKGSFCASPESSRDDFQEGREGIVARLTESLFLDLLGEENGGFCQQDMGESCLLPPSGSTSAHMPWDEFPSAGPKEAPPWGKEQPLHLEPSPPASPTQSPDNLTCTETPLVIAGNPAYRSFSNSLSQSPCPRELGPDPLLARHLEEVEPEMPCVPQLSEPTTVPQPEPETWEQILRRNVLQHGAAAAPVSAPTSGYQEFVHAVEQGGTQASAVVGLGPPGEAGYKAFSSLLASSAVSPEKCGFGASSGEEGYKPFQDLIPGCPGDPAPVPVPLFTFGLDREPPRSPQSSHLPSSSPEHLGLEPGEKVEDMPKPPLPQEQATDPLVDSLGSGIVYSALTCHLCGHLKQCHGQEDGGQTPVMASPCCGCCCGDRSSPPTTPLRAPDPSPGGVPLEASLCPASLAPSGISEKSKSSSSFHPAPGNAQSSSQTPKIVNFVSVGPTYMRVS


What was measured:
[1] = target: T1, human IL-4Rα (SPR target); assay: SPR (Biacore 3000), periplasmic Fab over CM5 chip coated with human IL-4Rα
Source text: (§1) After 3 rounds of selection, clones were selected (from round 2 and 3), and Fab was produced from the periplasmic extracts and tested by SPR.

[2] = target: T2, cynomolgus recombinant IL-4Rα; assay: SPR (Biacore 3000), periplasmic Fab over CM5 chip coated with cyno IL-4Rα
Source text: as §1

human IL-5 [3] = target: T3, human IL-5; assay: SPR as described in Example 2
human IL-5 [4] = target: T3, human IL-5; assay: cell-based or functional assay
[5] = target: T4, human IL-4Rα on the cells of the hIL-4 …; assay: cell-based or functional assay
[6] = target: T1, human IL-4Rα (SPR target); assay: SPR as described in Example 2

| Binder | R0 (binding) [1] | koff [1] [s⁻¹] | R0 (binding) [2] | koff [2] [s⁻¹] | Kd (human IL-5 [3]) [nM] | IC50 (pM), proliferation assay with hIL-5 (0.25 ng/mL) (human IL-5 [4]) [pM] | IC50 (nM), proliferation assay with hIL-4 (1.5 ng/mL) [5] [nM] | Kd [6] [nM] |
| --- | --- | --- | --- | --- | --- | --- | --- | --- |
| 3D6wt Fab (parental 4RMP3D6 as Fab) (Fab, V domains shown, also called h4R3D6) VH: QVQLQESGGGLVQPGGSLRLSCAASGFTFSSYSLTWVRQAPGKGLEWVSTIKARGGTTLYADSVKDRFTISRDNAKNTLYLLMNSLKPEDTAVYYCAKPLYNNFAGDFGSWGQGTTVTVSS VL: DIQMTQSPSSLSASLGDRVTITCQASQSISSYLAWYQQKPGQAPKLLIYGGSRLQTGVPSRFSGSGSGTSFTLTISGLETEDLATYYCLQDYSWPLTFGQGTKVELK | 204 | 0.00053 | 26 | 0.0017 |  |  |  |  |
| 150A09 Fab (variant of 4RMP3D6) (Fab, V domains shown, Fab from periplasmic extract, with CH1 and CK constant domains; also called VH150A09) VH: QVQLQESGGGLVQPGGSLRLSCAASGFTFSSYSLTWVRQAPGKGLEWVSTIKARGGTTLYADSVKDRFTISRDNAKNTLYLLMNSLKPEDTAVYYCVKPLYSNFAGDFGSWGQGTTVTVSS VL: DIQMTQSPSSLSASLGDRVTITCQASQSISSYLAWYQQKPGQAPRLLIYGGSRLQTGVPSRFSGSGSGTSFTLTISGLETEDLATYYCQQDYSWPLTFGQGTKLEIK | 53 | 0.00084 | 80 | 0.002 |  |  |  |  |
| 153A11 Fab (variant of 4RMP3D6) (Fab, V domains shown, Fab from periplasmic extract, with CH1 and CK constant domains; also called VH153A11) VH: QVQLQESGGGLVQPGGSLRLSCAASGFTFSSYSLTWVRQAPGKGLEWVSTIKARGGTTLYADSVKDRFTISRDNAKNTLYLQMNSLKPEDTAVYYCAKPLYSNLAGDFGSWGQGTTVTVSS VL: DIQMTQSPSSLSASLGDRVTITCQASQSISSYLAWYQQKSGQAPKLLIYGGSRLQTGVPSRFSGSGSGTSFTLTISGLETEDLATYYCLQVYSWPLTFGQGTKLEIK | 68 | 0.002 | 146 | 0.00033 |  |  |  |  |
| 153E11 Fab (variant of 4RMP3D6) (Fab, V domains shown, Fab from periplasmic extract, with CH1 and CK constant domains; also called VH153E11) VH: QVQLQESGGGLVQPGGSLRLSCAASGFTFSSYSLTWVRQAPGKGLEWVSTIKARGGTTLYADSVKDRFTISRDNAKNTLYLLMNSLKPEDTAVYYCAKPLYNNFAGHFGSWGQGTTVTVSS VL: DIQMTQSPSSLSASLGDRVTITCQASQSISSYLAWYQQKPGQAPKLLIYGGSRLQTGVPSRFSGSGSGTSFTLTISGLETEDLATYYCQQDYSWPLTFGQGTKLEIK | 56 | 0.00043 | 78 | 0.0014 |  |  |  |  |
| 152A07 Fab (variant of 4RMP3D6) (Fab, V domains shown, also called VH152A07) VH: QVQLQESGGGLVQPGGSLRLSCAASGFTFSSYSLTWVRQAPGKGLEWVSTIKARGGTTLYADSVKDRFTISRDNAKNTLYLLMNSLKPEDTAVYYCAKPLYSNLAGDLGSWGQGTTVTVSS VL: DIQMTQSPSSLSASLGDRVTITCQASQSISSYLAWYQQKPGQAPKLLIYGGSRLQTGVPSRFSGSGSGTSFTLTISGLETEDLATYYCLQDYSWPLTFGQGTKLEIK | 58 | 0.00069 | 94 | 0.0017 |  |  |  |  |
| h5MP90E7 human IL-5 mAb (antibody, V domains shown) VH: EVQLVESGGGLVQPGGSLRLSCAASGFAFSSSFMSWVRQAPGKGLEWVSTINGNGGTYYADSMKGRFTISRDNVKSTVTLQMNSLKPEDTAVYYCAADWISGGYYFPALGYWGQGTQVTVSS VL: SYELTQSPSVSVALRQTAKITCGGNNIGSKSAQWYQQKPGQAPVLVIYADSRRPSGIPERFSGSNSGNTATLTISGAQAEDEADYYCQVWDVSTNAAVFGGGTHLSVL |  |  |  |  | 0.129 | 8.84 |  |  |
| h5MP90G7 human IL-5 mAb (antibody, V domains shown) VH: EVQLVESGGGLVQPGGSLRLSCAASGFAFSSSFMSWVRQAPGKGLEWVSTINGNGGTYYADSMKGRFTISRDNVKSTVTLQMNSLKPEDTAVYYCAADWISGGYYFPALGYWGQGTQVTVSS VL: SYELTQSPSVSVALRQTAKITCGGNNIGRKSAQWYQQKPGQAPVLVIYADSRRPSGIPERFSGSNSGNTATLTISGAQAEDEADYYCQVWDSSANAAVFGGGTHLTVL |  |  |  |  | 0.113 | 1.61 |  |  |
| h5MP90C8 human IL-5 mAb (antibody, V domains shown) VH: EVQLVESGGGLVQPGGSLRLSCAASGFAFSSSFMSWVRQAPGKGLEWVSTINGNGGTYYADSMKGRFTISRDNVKSTVTLQMNSLKPEDTAVYYCAADWISGGYYFPALGYWGQGTQVTVSS VL: SYELTQSPSVSVALRQTAKITCGGDNIGSKSAQWYQQSPGQAPVLVIYADASRPSGIPERFSGSNSGNTATLTISGARAEDEADYYCQVWDTSTNAAVFGGGTHLTVL |  |  |  |  | 0.133 | 6.93 |  |  |
| h5MP26H7 human IL-5 mAb (antibody, V domains shown) VH: EVQLVESGGGLVQPGGSLRLSCAASGFAFSSSFMSWVRQAPGKGLEWVSTINGNGGTYYADSMKGRFTISRDNVKSTVTLQMNSLKPEDTAVYYCAADWISGGYYFPALGYWGQGTQVTVSS VL: SYELTQSPSVSVAQTQTAKITCGGDNIGSKSVQWYQQKPGQAPVLAIYADTRRPSGIPERFSGSNSGNTATLTITGAQAEDEADYYCQVWDTSTNVAVFGGGTRLTIL |  |  |  |  | 0.0749 | 37.5 |  |  |
| h4R3B2 human IL-4Rα mAb (antibody, V domains shown, also called h4RMP3B2; 4RMP3B2) VH: QLQLVESGGGLVQPGGSLRLSCAASGFTFSSYDMTWVRQAPGKGLEWVSAINSGGGSTNYADSVKGRVTISRDNAKNTLYLQMNSLKPEDTAVYFCARALRTVVHDRRLFYIDSWGQGTQVTVSS VL: SYELTQSPSVSVALRQTAKITCGGNNIGSKSAQWYQQKPGQAPVLVIYADSRRPSGIPERFSGSNSGNTATLTVSGAQAEDEADYYCQVWDTSAVVFGGGTRLTVL |  |  |  |  |  |  | 0.4 | 0.0818 |

Other lines, results leading:

| R0 (binding) [1] | koff [1] [s⁻¹] | R0 (binding) [2] | koff [2] [s⁻¹] | Kd (human IL-5 [3]) [nM] | IC50 (pM), proliferation assay with hIL-5 (0.25 ng/mL) (human IL-5 [4]) [pM] | IC50 (nM), proliferation assay with hIL-4 (1.5 ng/mL) [5] [nM] | Kd [6] [nM] | Binder |
| --- | --- | --- | --- | --- | --- | --- | --- | --- |
| 110 | 0.0012 | 170 | 0.0026 |  |  |  |  | 152B10 Fab (variant of 4RMP3D6) (Fab, V domains shown, Fab from periplasmic extract, with CH1 and CK constant domains; also called VH152B10) VH: QVQLQESGGGLVQPGGSLRLSCAASGFTFSSYSLTWVRQAPGKGLEWVSTIKARGGTTLYADSVKDRFTISRDNAKNTLYLLVNSLKPEDTAVYYCAKPLYNNLAGDFGSWGQGTTVTVSS VL: DIQMTQSPSSLSASLGDRVTITCQASQSISSYLAWYQQKPGQAPKLLIYGGSRLQAGVPSRFSGSGSGTSFTLTIGGLETEDLATYYCQQDYSWPLTFGQGTKLEIK |
|  |  |  |  | 0.0835 | 4.99 |  |  | h5MP90A9 human IL-5 mAb (antibody, V domains shown) VH: EVQLVESGGGLVQPGGSLRLSCAASGFAFSSSFMSWVRQAPGKGLEWVSTINGNGGTYYADSMKGRFTISRDNVKSTVTLQMNSLKPEDTAVYYCAADWISGGYYFPALGYWGQGTQVTVSS VL: SYELTQSPSLSVALRQTAKMTCGGNKIGSKSAQWYQQKPGQAPVLVIYADSRRPSGIPERFAGSNAGNTATLTISGAQAEDEADYYCQVWDISANAAVFGGGTHLTVL |
|  |  |  |  | 0.0264 | 6.84 |  |  | h5MP90D9 human IL-5 mAb (antibody, V domains shown) VH: EVQLVESGGGLVQPGGSLRLSCAASGFAFSSSFMSWVRQAPGKGLEWVSTINGNGGTYYADSMKGRFTISRDNVKSTVTLQMNSLKPEDTAVYYCAADWISGGYYFPALGYWGQGTQVTVSS VL: SYELTQSPSVSVALRQTAKITCGGNNIGSLSTQWYQQKPGQAPVLVIYADNRRPSGIHERFSGSNSGNTATLTIGGAQAEDEADYYCQVWDNSANALVFGGGTHLTVL |
|  |  |  |  |  |  | 0.2 | 0.0442 | h4R5D1 human IL-4Rα mAb (antibody, V domains shown, also called h4RMP5D1; 4RMP5D1) VH: QLQLVESGGGLVQPGGSLRLSCAASGFTFSSYIMSWVRQAPGKGLEWVSGISSGGGITAYADSVKGRFTISRDNAKNTLYLQMNSLKPDDTAVYYCVAGLLRVEGYWGQGTQVTVSS VL: QTVVTQEPSLSVSPGGTVTLTCGLSSGSVTSSNYPGWYQQTPGQAPRSLIYATASRHSGVPSRYSGSISGNKATLTITGAEPEDEADYYCALHKGTYVFGGGTKLTVL |
